# Data from patent US20240400654A1.
# Positions count from the first letter of the chain named. Numbers in names are those of the source. Where “and” joins values, the source holds several entries; their conditions need not be identical. Equal values may be shown once.
# B1: KB001 mouse Fab VH S30G (Fab, V domains shown)
# VH: EVQLKQSGPGLVAPSQSLSITCTVSGFSLGIYSVHWVRQPPGKGLEWLGMIWGGGSSDYNSALKSRLSISKDNSKSQVFLKMNSLQTDDTAMYYCARNGNFYAMDYWGQGTSVTVSS
# VL: QIVLTQSPAIMSASLGERVTMTCTASSSVSSSFLHWYQQKPGSSPQLWIYSTSNLASGVPARFSGSGSGTSYSLTISSMEAEDAATYYCHQYHHSPYIYTFGGGTKLEIK
# B2: KB001 mouse Fab VH Y106M (Fab, V domains shown)
# VH: B1 VH with G30S, Y106M
# VL: B1 VL
# B3: KB001 mouse Fab VH Y106A (Fab, V domains shown)
# VH: B1 VH with G30S, Y106A
# VL: B1 VL
# B4: KB001 mouse Fab VH S65T (Fab, V domains shown)
# VH: B1 VH with G30S, S65T
# VL: B1 VL
# B5: KB001 mouse Fab VH Y106N (Fab, V domains shown)
# VH: B1 VH with G30S, Y106N
# VL: B1 VL
# B6: KB001 mouse Fab VH G26D (Fab, V domains shown)
# VH: B1 VH with G26D, G30S
# VL: B1 VL
# B7: KB001 mouse Fab VH S65V (Fab, V domains shown)
# VH: B1 VH with G30S, S65V
# VL: B1 VL
# B8: KB001 mouse Fab VH G26N (Fab, V domains shown)
# VH: B1 VH with G26N, G30S
# VL: B1 VL
# B9: KB001 mouse Fab VH G99S (Fab, V domains shown)
# VH: B1 VH with G30S, G99S
# VL: B1 VL
# B10: KB001 mouse Fab VH Y106Q (Fab, V domains shown)
# VH: B1 VH with G30S, Y106Q
# VL: B1 VL
# B11: KB001 mouse Fab VH K64R (Fab, V domains shown)
# VH: B1 VH with G30S, K64R
# VL: B1 VL
# B12: KB001 mouse Fab VH Y106L (Fab, V domains shown)
# VH: B1 VH with G30S, Y106L
# VL: B1 VL
# B13: KB001 mouse Fab VH Y106T (Fab, V domains shown)
# VH: B1 VH with G30S, Y106T
# VL: B1 VL
# B14: KB001 mouse Fab VH S30Y (Fab, V domains shown)
# VH: B1 VH with G30Y
# VL: B1 VL
# B15: KB001 mouse Fab VH K64A (Fab, V domains shown)
# VH: B1 VH with G30S, K64A
# VL: B1 VL
# B16: KB001 mouse Fab VH A103S (Fab, V domains shown)
# VH: B1 VH with G30S, A103S
# VL: B1 VL
# B17: KB001 mouse Fab VH S56A (Fab, V domains shown)
# VH: B1 VH with G30S, S56A
# VL: B1 VL
# B18: KB001 mouse Fab VH S28L (Fab, V domains shown)
# VH: B1 VH with S28L, G30S
# VL: B1 VL
# B19: KB001 mouse Fab VH N100E (Fab, V domains shown)
# VH: B1 VH with G30S, N100E
# VL: B1 VL
# B20: KB001 mouse Fab VH G99Y (Fab, V domains shown)
# VH: B1 VH with G30S, G99Y
# VL: B1 VL
# B21: KB001 mouse Fab VH S57A (Fab, V domains shown)
# VH: B1 VH with G30S, S57A
# VL: B1 VL
# B22: KB001 mouse Fab VH I31V (Fab, V domains shown)
# VH: B1 VH with G30S, I31V
# VL: B1 VL
# B23: KB001 mouse Fab VH S28G (Fab, V domains shown)
# VH: B1 VH with S28G, G30S
# VL: B1 VL
# B24: KB001 mouse Fab VH S28H (Fab, V domains shown)
# VH: B1 VH with S28H, G30S
# VL: B1 VL
# B25: KB001 mouse Fab VH V34I (Fab, V domains shown)
# VH: B1 VH with G30S, V34I
# VL: B1 VL
# B26: KB001 mouse Fab VH S65D (Fab, V domains shown)
# VH: B1 VH with G30S, S65D
# VL: B1 VL
# B27: KB001 mouse Fab VH Y106V (Fab, V domains shown)
# VH: B1 VH with G30S, Y106V
# VL: B1 VL
# B28: KB001 mouse Fab VH S57Q (Fab, V domains shown)
# VH: B1 VH with G30S, S57Q
# VL: B1 VL
# B29: KB001 mouse Fab VH I31T (Fab, V domains shown)
# VH: B1 VH with G30S, I31T
# VL: B1 VL
# B30: KB001 mouse Fab VH I31M (Fab, V domains shown)
# VH: B1 VH with G30S, I31M
# VL: B1 VL
# B31: KB001 mouse Fab VH S61N (Fab, V domains shown)
# VH: B1 VH with G30S, S61N
# VL: B1 VL
# B32: KB001 mouse Fab VH Y106S (Fab, V domains shown)
# VH: B1 VH with G30S, Y106S
# VL: B1 VL
# B33: KB001 mouse Fab VH S61T (Fab, V domains shown)
# VH: B1 VH with G30S, S61T
# VL: B1 VL
# B34: KB001 mouse Fab VH Y106F (Fab, V domains shown)
# VH: B1 VH with G30S, Y106F
# VL: B1 VL
# B35: KB001 mouse Fab VH S30A (Fab, V domains shown)
# VH: B1 VH with G30A
# VL: B1 VL
# B36: KB001 mouse Fab VH S57V (Fab, V domains shown)
# VH: B1 VH with G30S, S57V
# VL: B1 VL
# B37: KB001 mouse Fab VH Y106R (Fab, V domains shown)
# VH: B1 VH with G30S, Y106R
# VL: B1 VL
# B38: KB001 mouse Fab VH Y106W (Fab, V domains shown)
# VH: B1 VH with G30S, Y106W
# VL: B1 VL
# B39: KB001 mouse Fab VH Y106I (Fab, V domains shown)
# VH: B1 VH with G30S, Y106I
# VL: B1 VL
# B40: KB001 mouse Fab VH Y59V (Fab, V domains shown)
# VH: B1 VH with G30S, Y59V
# VL: B1 VL
# B41: KB001 mouse Fab VH Y106K (Fab, V domains shown)
# VH: B1 VH with G30S, Y106K
# VL: B1 VL
# Molecular target: HRgpA-6H (Porphyromonas gingivalis) (UniProt P28784)
# Test: ELISA, coated HRgpA-6H
# Sequence of UniProt P28784 (P28784 228-860 limits assumed): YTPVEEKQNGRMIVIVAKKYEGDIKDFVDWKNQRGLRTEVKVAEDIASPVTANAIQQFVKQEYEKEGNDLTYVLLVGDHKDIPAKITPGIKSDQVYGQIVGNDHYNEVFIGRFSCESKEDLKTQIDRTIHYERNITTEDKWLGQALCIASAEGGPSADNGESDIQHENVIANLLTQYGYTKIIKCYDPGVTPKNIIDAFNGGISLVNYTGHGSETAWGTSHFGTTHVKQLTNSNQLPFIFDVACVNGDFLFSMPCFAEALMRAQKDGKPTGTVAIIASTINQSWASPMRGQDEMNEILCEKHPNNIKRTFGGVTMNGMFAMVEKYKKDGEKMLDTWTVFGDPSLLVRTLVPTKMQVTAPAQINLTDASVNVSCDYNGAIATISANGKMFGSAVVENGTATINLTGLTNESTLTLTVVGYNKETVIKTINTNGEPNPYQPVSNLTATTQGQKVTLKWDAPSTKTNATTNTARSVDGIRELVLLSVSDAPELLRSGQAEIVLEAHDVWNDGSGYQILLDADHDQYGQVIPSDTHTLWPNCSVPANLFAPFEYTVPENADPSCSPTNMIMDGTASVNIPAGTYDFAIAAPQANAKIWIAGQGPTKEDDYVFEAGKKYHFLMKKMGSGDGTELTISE
Binder,OD450 nm,Ratio OD(Variant)/OD(WT)
B1,0.533 and 0.515,1.06 and 1.02
B2,0.794 and 0.84,1.03 and 1.09
B3,0.821 and 0.835,1.07 and 1.09
B4,0.883,1.07
B5,0.792,1.03
B6,0.47 and 0.481,0.925 and 0.947
B7,0.867,1.05
B8,0.445,0.876
B9,0.809,1.01
B10,0.792,1.03
B11,0.87,1.05
B12,0.791,1.03
B13,0.827,1.07
B14,0.53 and 0.488,1.05 and 0.967
B15,0.89,1.08
B16,0.909,1.05
B17,0.891 and 0.86 and 0.82,1.01 and 0.978 and 0.932
B18,0.435 and 0.468,0.806 and 0.867
B19,0.886,1.05
B20,0.835,1.05
B21,0.922,1.05

Binder,OD450 nm,Ratio OD(Variant)/OD(WT)
B22,0.537 and 0.521,1.06 and 1.03
B23,0.468 and 0.486,0.867 and 0.9
B24,0.511 and 0.526,0.946 and 0.974
B25,0.891 and 0.868 and 0.866,1.08 and 1.05 (2×)
B26,0.866 and 0.897,1.05 and 1.08
B27,0.795 and 0.84 and 0.802,1.03 and 1.09 and 1.04
B28,0.915 and 0.863 and 0.836,1.04 and 0.981 and 0.951
B29,0.56 and 0.534,1.11 and 1.06
B30,0.522,1.03
B31,0.537,1.09
B32,0.852 and 0.849,1.11 and 1.1
B33,0.543 and 0.447,1.1 and 0.906
B34,0.815 and 0.856,1.06 and 1.11
B35,0.534 and 0.499 and 0.494,1.06 and 0.989 and 0.979
B36,0.911 and 0.869,1.04 and 0.988
B37,0.793,1.03
B38,0.791 and 0.809 and 0.82,1.03 and 1.05 and 1.07
B39,0.803,1.04
B40,0.83 and 0.79,1.05 and 0.999
B41,0.807,1.05
